{"source": "patent US10308973B1", "about": "“Real-time imaging method of NAPDH-dependent metabolic activity in cell and use thereof” (INDUSTRY FOUNDATION OF CHONNAM NATIONAL UNIVERSITY, priority 2018, dated 2019)", "molecules": {"B1": {"name": "Wild type: wild-type metagenome-derived blue fluorescent protein, SEQ ID NO: 6, GenBank Accession No. AF485783 (protein)", "chain": "MQNLNGKVAFVTGGSRGIGAAIVRRLAADGADIAFTYVSASSKNVATALVQELEAKGRRARAIQADSADPAQVRQAVEQAIVQLGPVDVLVNNAGIFLAGPLGEVTLDDYERTMNINVRAPFVAIQAAQASMPDGGRIINIGSCLAERAGRAGVTLYAASKSALLGMTRGLARDLGARGITANVVHPGPIDTDMNPADGERSGELVAVLSLPHYGEVRDIAGMVAFLAGPDGRYVTGASLAVDGGFAA", "modifications": "BFP wild type Y157 w/o his-tag"}}, "key": {"[1]": {"test_system": "mBFP-transformed animal cells", "test": "NADPH imaging of mBFP-transformed animal cells treated with NADPH dehydrogenase inhibitors", "assay_type": "cell-based", "conditions": "compared among the inhibitors of Table 3", "protocol": "The mBFP-transformed animal cells were cultured and treated with NADPH dehydrogenase inhibitors shown in Table 3, respectively, and the amount of change in NADPH was measured."}, "[2]": {"test_system": "recombinant animal cells (HeLa cell)", "test": "Two-photon fluorescence imaging of mBFP-expressing animal cells after oxidant treatment", "assay_type": "cell-based", "conditions": "40 μM diamide; glucose-free medium; images every second", "protocol": "The recombinant animal cells produced in the Examples above were treated with diamide, which is an oxidant, to reduce the amount of NADPH in the cells, and the change in fluorescence was observed as follows. First, before observing the recombinant animal cells, the medium was replaced with a culture medium from which glucose was removed to prevent continuous overproduction of NADPH, and the cells were cultured for 1 hour and images thereof were observed. After treatment with 40 μM diamide, fluorescence images were taken every second using a real-time image measurement method using a two-photon microscopy."}, "[3]": {"test": "Enzyme activity (aldehyde dehydrogenase) of purified mutant mBFP", "assay_type": "biochemical", "conditions": "purified protein", "protocol": "In order to measure benzaldehyde dehydrogenase activity, a reaction solution of pH 7.5 in which 100 mM Tris, 100 mM sodium chloride, 0.05% Triton X-100, […] and added at an amount of 10 μL per well containing 90 μL of cultured cells, and reacted for 10 minutes. The change in fluorescence value was measured by the fluorescence reader to measure the amount of NADPH consumed by the activity of mBFP mutant enzyme.\nIn order to measure the enzyme activity of the short-chain dehydrogenase/reductase family (SDR family) of the purified mutant mBFP, a reaction solution (100 mM Tris, 100 mM sodium chloride, 0.05% Triton X-100, 0.5 mM benzaldehyde, 0.5 mM NADPH, pH 7.5) for measuring aldehyde dehydrogenase was added at an amount of 10 μL to each well to which the protein was added, and reacted for 10 minutes, and then the amount of reduced NADPH was measured using a fluorescent reader."}, "[4]": {"test": "Benzaldehyde reductase activity of mBFP purified from transformed cells", "assay_type": "biochemical", "conditions": "benzaldehyde reaction solution", "protocol": "The cultured cells were disrupted, recovered, and purified using the His-tag as follows.\nThe cell supernatant disrupted with phosphate buffered saline (PBS) was injected into and passed through Ni-NTA Spin Columns (Qiagen), and washed with wash buffer (PBS, 10 mM imidazole). Then, the mBFP protein was recovered with the elution buffer (PBS, 100 mM imidazole).\nIn order to confirm whether the mBFP protein had activity as a reductase through mutation, the reductase activity of mBFP was measured using the reaction solution for measuring the benzaldehyde reductase activity of Example 1 above."}}, "data": [{"molecule": "NC(=O)c1ccc(N)nc1", "note": "[6-ANA, 6-Aminonicotinamide]", "values": [{"measurement": "difference of fluorescence intensity due to mBFP after inhibitor treatment", "setting": "[1]", "result": "the largest"}]}, {"molecule": "CN(C)C(=O)/N=N/C(=O)N(C)C", "note": "[diamide]", "values": [{"measurement": "fluorescence intensity after oxidant treatment", "setting": "[2]", "result": "rapidly decreased"}]}, {"molecule": "C[C@]12CC[C@H](O)CC1=CC[C@@H]1[C@@H]2CC[C@]2(C)C(=O)CC[C@@H]12", "note": "[DHEA, Dehydroepiandrosterone]", "values": [{"measurement": "difference of fluorescence intensity due to mBFP after inhibitor treatment", "setting": "[1]", "result": "the largest"}]}, {"molecule": "B1", "values": [{"measurement": "Enzyme activity of mutant mBFP, Acetaldehyde", "setting": "[3]; substrate acetaldehyde", "result": "10.34 ± 0.24", "unit": "U mg^−1"}, {"measurement": "Enzyme activity of mutant mBFP, Benzaldehyde", "setting": "[3]; substrate benzaldehyde", "result": "6.41 ± 0.34", "unit": "U mg^−1"}, {"measurement": "Enzyme activity of mutant mBFP, Hexanal", "setting": "[3]; substrate hexanal", "result": "4.34 ± 0.14", "unit": "U mg^−1"}, {"measurement": "Enzyme activity of mutant mBFP, Pivaldehyde", "setting": "[3]; substrate pivaldehyde", "result": "14.43 ± 0.68", "unit": "U mg^−1"}, {"measurement": "reductase activity (in words)", "setting": "[4]", "result": "exhibited the reductase activity"}]}]}
